Data as given in PMC11558822, “Myc 9aaTAD activation domain binds to mediator of transcription with superior high affinity” (Molecular Medicine, 2024).

Tested on: lacZ reporter driven by the lexA operator
Experiment: One hybrid transactivation (β-galactosidase reporter) assay with LexA hybrids in yeast strain L40
Type: cell-based, Saccharomyces cerevisiae
Details: for ß-Gal: raw β-galactosidase activity; for Reporter activation (average value in %): β-galactosidase activity of LexA hybrid, % of positive control p53 construct 6p53 set to 100%, mean ± SD, n = 3; for normalized value in %: β-galactosidase, % of 6p53 mean
[1] = replicate 1 (first sample of the construct)
[2] = replicate 2 (second sample of the construct)
[3] = replicate 3 (third sample of the construct)

Row | Molecule | activation function (times) (one hybrid assay, presence versus absence of 9aaTAD (region 100–108) in the construct) | ß-Gal [1] | ß-Gal [2] | ß-Gal [3] | Reporter activation (average value in %) [%] | normalized value in % [1] [%] | normalized value in % [2] [%] | normalized value in % [3] [%]
1 | c-Myc region 1-108: LexA hybrid construct of c-Myc N-terminal region 1–108 with 9aaTAD (protein, UniProt P01106 1-108, looked up, fragment, LexA fusion, LexA hybrid construct of c-Myc N-terminal region 1–108 with 9aaTAD) MDFFRVVENQQPPATMPLNVSFTNRNYDLDYDSVQPYFYCDEEENFYQQQQQSELQPPAPSEDIWKKFELLPTPPLSPSRRSGLCSPSYVAVTPFSLRGDNDGGGGSF | 5 | 136 | 123 | 139 | 49 | 50 | 45 | 51
2 | c-Myc region 1-103: LexA hybrid construct of c-Myc N-terminal region 1–103 without 9aaTAD (protein, UniProt P01106 1-103, looked up, fragment, LexA fusion, LexA hybrid construct of c-Myc N-terminal region 1–103 without 9aaTAD) MDFFRVVENQQPPATMPLNVSFTNRNYDLDYDSVQPYFYCDEEENFYQQQQQSELQPPAPSEDIWKKFELLPTPPLSPSRRSGLCSPSYVAVTPFSLRGDNDG |  | 25 | 24 | 27 | 9 | 9 | 9 | 10
